Target: T1, cata_human CAT (UniProt P04040)
T1 sequence: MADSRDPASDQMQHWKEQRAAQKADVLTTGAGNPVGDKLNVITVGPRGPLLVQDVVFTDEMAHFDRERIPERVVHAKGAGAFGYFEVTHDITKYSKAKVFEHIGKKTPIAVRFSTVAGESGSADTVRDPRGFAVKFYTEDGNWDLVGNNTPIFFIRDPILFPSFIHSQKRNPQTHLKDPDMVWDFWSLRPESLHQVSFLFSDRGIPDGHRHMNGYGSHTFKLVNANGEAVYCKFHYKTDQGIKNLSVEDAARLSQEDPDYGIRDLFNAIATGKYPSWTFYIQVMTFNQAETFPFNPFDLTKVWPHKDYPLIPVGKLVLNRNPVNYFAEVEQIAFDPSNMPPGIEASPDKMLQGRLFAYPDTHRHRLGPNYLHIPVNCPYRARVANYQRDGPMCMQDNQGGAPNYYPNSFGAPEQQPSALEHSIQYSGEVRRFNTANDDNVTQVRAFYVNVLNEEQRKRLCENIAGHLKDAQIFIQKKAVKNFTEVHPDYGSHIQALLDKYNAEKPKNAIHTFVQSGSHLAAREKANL

Ras-related protein Rab-14 (Homo sapiens) (from UniProt P61106) Q70N
effect of a mutation on the interaction: increasing interaction

Reference: IntAct's records for PubMed 23333653
